B3: His-tagged Erh1 (residues 1-104) (natural protein, S. pombe, UniProt G2TRN4 1-104, looked up)
chain: MSPPPAESHIILLIQQGSDPKTRIWSDHCSLRSAIEYIVGVYQTNQAVSEKESIDVSRFFNFFDEIYDCVPLVYDRHFRAYIPHEKQWLLHHAQEYLTAARQIP
notes: Erh1 (Enhancer of rudimentary homolog 1), S. pombe, residues 1-104; Cloned into p28a, a modified pET28a without a thrombin cleavage site; Homodimer by SEC and in the crystal; also called Enhancer of rudimentary homolog 1; source: E. coli BL21 (Gold), purified (Ni-chelating resin, SEC)

Assays:
[1] = biological target: B3; experiment: ITC; MicroCal iTC200, 293 K, 20 mM Tris-HCl pH 7.5, 150 mM NaCl; SUMO-tagged Mmi1 peptides titrated into Erh1 in the cell; single-site binding model; conditions: both partners purified
Erh1 E85A = biological target: T1, Erh1 E85A (S. pombe, UniProt G2TRN4 1-104, E85A); experiment: ITC; SUMO-tagged Mmi1 peptides titrated into Erh1 in the sample cell; MicroCal iTC200, 293 K; 20 mM Tris-HCl pH 7.5, 150 mM NaCl; single-site binding model; conditions: both partners purified
T1 construct: Erh1, S. pombe, residues 1-104, point mutant made with the MutanBEST kit; source: E. coli BL21 (Gold), purified (Ni-chelating resin, size-exclusion chromatography)
T1 sequence (looked up): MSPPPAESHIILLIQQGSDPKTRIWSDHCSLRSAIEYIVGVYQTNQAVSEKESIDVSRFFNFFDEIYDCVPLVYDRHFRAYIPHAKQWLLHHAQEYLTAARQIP

Erh1 H9A = biological target: T2, Erh1 H9A (S. pombe, UniProt G2TRN4 1-104, H9A); experiment: as above; conditions: both partners purified
T2 construct: Erh1, S. pombe, residues 1-104, point mutant made with the MutanBEST kit; source: E. coli BL21 (Gold), purified (Ni-chelating resin, size-exclusion chromatography)
T2 sequence (looked up): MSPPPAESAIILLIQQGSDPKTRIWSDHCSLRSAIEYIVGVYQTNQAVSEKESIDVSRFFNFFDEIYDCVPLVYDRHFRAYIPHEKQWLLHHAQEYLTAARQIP

Erh1 R23A = biological target: T3, Erh1 R23A (S. pombe, UniProt G2TRN4 1-104, R23A); experiment: as above; conditions: both partners purified
T3 construct: Erh1, S. pombe, residues 1-104, point mutant made with the MutanBEST kit; source: E. coli BL21 (Gold), purified (Ni-chelating resin, size-exclusion chromatography)
T3 sequence (looked up): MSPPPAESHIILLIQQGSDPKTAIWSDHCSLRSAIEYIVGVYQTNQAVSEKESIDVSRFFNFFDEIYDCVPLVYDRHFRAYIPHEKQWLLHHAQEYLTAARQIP

Erh1 D27A = biological target: T4, Erh1 D27A (S. pombe, UniProt G2TRN4 1-104, D27A); experiment: as above; conditions: both partners purified
T4 construct: Erh1, S. pombe, residues 1-104, point mutant made with the MutanBEST kit; source: E. coli BL21 (Gold), purified (Ni-chelating resin, size-exclusion chromatography)
T4 sequence (looked up): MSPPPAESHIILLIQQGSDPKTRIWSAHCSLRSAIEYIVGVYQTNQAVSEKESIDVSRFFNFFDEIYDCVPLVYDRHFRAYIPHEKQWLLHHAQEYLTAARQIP

Erh1 D68A = biological target: T5, Erh1 D68A (S. pombe, UniProt G2TRN4 1-104, D68A); experiment: as above; conditions: both partners purified
T5 construct: Erh1, S. pombe, residues 1-104, point mutant made with the MutanBEST kit; source: E. coli BL21 (Gold), purified (Ni-chelating resin, size-exclusion chromatography)
T5 sequence (looked up): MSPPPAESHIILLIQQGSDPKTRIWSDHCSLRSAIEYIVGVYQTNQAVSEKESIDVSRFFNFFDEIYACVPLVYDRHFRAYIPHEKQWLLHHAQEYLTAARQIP

[2] = biological target: T6, GST-tagged Mmi1^1-122 amino-terminal fragment (S. pombe, UniProt O74958 1-122); experiment: pull-down; GST-Mmi1 fusion proteins incubated with Erh1, collected with glutathione-agarose resin, eluted, SDS-PAGE with Coomassie blue staining; conditions: both partners purified
T6 construct: Vector Tev4T1 (modified pGEX-4T1 with a TEV site); source: E. coli BL21 (Gold), purified (glutathione sepharose, SEC)
T6 sequence (looked up): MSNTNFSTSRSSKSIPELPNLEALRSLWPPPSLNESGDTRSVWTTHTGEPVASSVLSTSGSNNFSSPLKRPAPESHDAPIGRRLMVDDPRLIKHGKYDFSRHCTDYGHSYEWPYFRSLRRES

[3] = biological target: the molecule itself; experiment: SEC; analytical size-exclusion chromatography, calibrated Superdex75 10/300 GL column; Erh1 alone and Erh1 with Mmi1^95-122 after removal of the SUMO tag by ULP1
[4] = Analytical size-exclusion chromatography (oligomeric state); assay type: physicochemical
Method: Next, we assessed the stoichiometry of Erh1 and Erh1-Mmi1^95–122 complexes by analytical size-exclusion chromatography (SEC) using a calibrated Superdex75 10/300 GL column (GE Healthcare). Erh1 eluted as a single peak at 11.41 mL, corresponding to an apparent molecular weight (MW) of 26 kDa. With a predicted molecular weight (MW) of ~13.2 kDa, this elution profile likely represents Erh1 homodimers (Fig. 1g). This is consistent with previous reports showing that human ERH protein exists as a dimer in solution[37].
We next purified SUMO-tagged Mmi1^95–122 and incubated it with Erh1, followed by removal of the SUMO tag by ULP1 enzyme.

Erh1 = experiment: GST pull-down of Erh1 with GST-tagged Mmi1 fragments, Coomassie; assay type: binding, S. pombe; conditions: GST-Mmi1 fusion incubated with Erh1, glutathione-agarose, SDS-PAGE
Text: Fig. 1 Mmi1 interacts with Erh1 in a 2:2 stoichiometry. a Shown is a schematic representation of the domain architecture of Mmi1. The disorder score from DISOPRED3 Server[62] and the conservation score are shown below. The conservation score is generated by a Protein Residue Conservation Prediction Server[63] from the sequence alignment of Mmi1 orthologues from S. pombe, S. cryophilus, S. octosporus, and S. japonicus. b–d Interactions of GST tagged Mmi1 peptides (GST-Mmi1) with Erh1 visualized by Coomassie blue staining. The indicated GST-Mmi1 fusion proteins or GST alone were incubated with Erh1. The complexes were collected with glutathione-agarose resin and bound proteins were eluted and then subjected to SDS-PAGE. GST or GST-Mmi1 fusion proteins without Erh1 are shown as a negative control. Source data are provided as a Source Data file. e The raw ITC titration data of Erh1 with SUMO tagged Mmi1^95–122 and its fitting curve are shown. KD dissociation constant, DP differential power, N binding stoichiometry, ΔH binding enthalpy. f ITC fitting curves of Erh1 using SUMO tagged Mmi1^95–122 (magenta), Mmi1^106–122 (blue) and Mmi1^95–111 (green) are shown. g Size-exclusion analysis of Erh1 (magenta) and Erh1-Mmi1^95–122 (blue). Marker sizes are 62.9 KDa (Albumin), 46.7 KDa (Ovalbumin), 20.3 KDa (Chymotrypsinogen), 14.6 KDa (Ribonuclease A). Also shown are theoretical monomer sizes (kDa) of Erh1 protein and Mmi1^95–122 peptide TEXT PRINTED IN THE PICTURE: (e) Mmi1^95–122 - Erh1: KD (μM) 0.83±0.19; N (sites) 0.90±0.01; ΔH (kJ per mol) −106±3.02 | (f) Mmi1^95–122: Erh1 KD (μM): 0.83±0.19 | (f) Mmi1^106–122: Erh1 KD (μM): 9.94±1.19 | (f) Mmi1^95–111: Erh1 KD (μM): no binding | (g) Erh1: 13.2 kDa | (g) Mmi1^95–122: 3.5 kDa
A region of Erh1 (residues 1–104) was amplified by PCR from the S. pombe genome and cloned into a modified pET28a (Novagen) vector without a thrombin protease cleavage site (p28a). GST-Mmi1^YTH was sub-cloned from a Mmi1^YTH-p28a construct to a modified PGex-4T1 vector with a TEV protease cleavage site (Tev4T1). […]

[5] = biological target: B3; experiment: SEC; analytical size-exclusion chromatography, calibrated Superdex75 10/300 GL column; Erh1 alone and Erh1 with Mmi1^95-122 after removal of the SUMO tag by ULP1; conditions: both partners purified

B1: SUMO tagged Mmi1^95-122 (domain or fragment, S. pombe, UniProt O74958 95-122, looked up)
chain: GKYDFSRHCTDYGHSYEWPYFRSLRRES
notes: SUMO protein fused at the N-terminus following the His6 tag (modified pET28a); source: E. coli BL21 (Gold), purified (Ni-chelating resin, SEC); not shown: SUMO, N-terminal, kept
[1]
  Kd: 830 ± 190 nM
  stoichiometry N: 0.9

B2: SUMO-tagged Mmi1 95-122 (domain or fragment, S. pombe, UniProt O74958 95-122, looked up)
chain: GKYDFSRHCTDYGHSYEWPYFRSLRRES
notes: SUMO stands after the His6 tag at the N-terminus; also called Mmi1wt; source: E. coli BL21 (Gold), purified (Ni-chelating resin, size-exclusion chromatography); not shown: SUMO, N-terminal, kept
Erh1 E85A
  Kd: 2150 ± 291 nM
  stoichiometry N: 1.08
Erh1 H9A
  Kd: 1530 ± 205 nM
  stoichiometry N: 1.32
Erh1 R23A
  Kd: 1480 ± 1070 nM
  stoichiometry N: 1.28
Erh1 D27A
  Kd: 2040 ± 366 nM
  stoichiometry N: 1.14
Erh1 D68A
  Kd: 3960 ± 551 nM
  stoichiometry N: 1.34

## B3
[2]
  binding result: binds
[3]
  stoichiometry N: 2

B4: Erh1: S. pombe ortholog of human ERH (protein)
chain: MSPPPAESHIILLIQQGSDPKTRIWSDHCSLRSAIEYIVGVYQTNQAVSEKESIDVSRFFNFFDEIYDCVPLVYDRHFRAYIPHEKQWLLHHAQEYLTAARQIP
modifications: left off: His6, end not stated, state not stated
notes: S. pombe ortholog of human ERH
[4]; Erh1 associated with Mmi1^95–122 after SUMO tag removal by ULP1, consistent with 2:2 stoichiometry
  calculated molecular weight of complex with Erh1 by SEC: 33 kDa
[4]; Superdex75 10/300 GL, calibrated, predicted monomer ~13.2 kDa, likely homodimer
  apparent molecular weight by SEC (Erh1 alone): 26 kDa

B5: GST-tagged YTH domain of Mmi1: carboxy-terminal YTH domain of Mmi1, purified GST fusion (protein)
chain: SRYFIMLCDNETAIAHAKKTSIWAVKKDSSKRISDAYKKASVYFIFVAQQTYNALGYAQVVSDLNSTELPFWSDSSHAGGVRIKWIKTCNLFSAEISEIVSHMDHGSEARDGMEMMYDEGSRLCTLI
modifications: left off: GST, end not stated, kept
notes: carboxy-terminal YTH domain of Mmi1, purified GST fusion
Erh1
  interaction with Erh1 (GST pull-down): no interaction

B6: Mmi1^95-122 peptide (SUMO tag removed) (peptide, UniProt O74958 95-122, looked up)
chain: GKYDFSRHCTDYGHSYEWPYFRSLRRES
notes: also called EID; EIM peptide; source: E. coli BL21 (Gold), purified as SUMO fusion, incubated with Erh1, SUMO tag removed by ULP1; not shown: His6, N-terminal, cleaved; SUMO, N-terminal, cleaved
[5]
  stoichiometry N: 1 Mmi1 per Erh1 (printed as 2:2)

From publication PMC6335422 (Nature Communications, 2019)
